Measurements from article PMC8200818, “SPECT/CT Imaging, Biodistribution and Radiation Dosimetry of a ^177Lu-DOTA-Integrin αvβ6 Cystine Knot Peptide in a Pancreatic Cancer Xenograft Model” (Frontiers in Oncology, 2021).

Assay: in vivo
Details: female, mouse, iv, 1 MBq, total radioactivity; for tissue uptake at 24 h: 24 h p.i.; for tissue uptake at 24 h / tissue uptake at 48 h / tissue uptake at 72 h / tissue uptake at 192 h: nude mice, Capan-2 xenografts, mean ± SD (4 ≤ n ≤ 5); for tissue uptake at 48 h: 48 h p.i.; for tissue uptake at 72 h: 72 h p.i.; for tissue uptake at 192 h: 192 h p.i.
Description: For in vivo experiments, at least 8-week-old female athymic NMRI-Foxn1^nu/Foxn1^nu mice (Janvier Labs, Saint-Berthevin, France) were used. Animal care followed institutional guidelines and all experiments were approved by local animal research authorities. For the generation of tumor xenografts, 5 x 10^6 cells of Capan-2 cells were inoculated subcutaneously into the left and right shoulder (1:1 phosphate-buffered saline [PBS]/Matrigel Basement Membrane Matrix High Concentration, Corning, Corning, USA). Tumors were allowed to grow for two to four weeks (tumor volume > 100 mm^3) after cell inoculation.
Radiolabeling of the DOTA-integrin αvβ6 knottin was carried out manually using [^177Lu]LuCl3 and a reagent kit from ITG Isotope Technologies Garching GmbH (Garching, Germany). A total of 40 µL (stock solution of peptide at 1 µg/µL in 10% DMSO in water) was added to 500 µL of ascorbate buffer solution pH 5.0, prepared from the kit (composition not disclosed by vendor) and the resulting mixture was then added to 35 µL of [^177Lu]LuCl3 (2 GBq in aqueous 0.04 M HCl) and the reaction mixture was heated at 80 °C for 35 minutes followed by cooling for 10 minutes at room temperature. The product was then diluted with 0.5 mL of saline and the pH was adjusted to 7 using a 1 M aqueous solution of NaHCO3 prior to injection in mice. A reverse-phase HPLC system (Knauer GmbH, Germany) with a column (Eurospher II, C18, 250 × 4 mm) was used to determine the radiochemical purity of the radiotracer. The HPLC system was equipped with an Azura P.6.1L pump coupled with ultraviolet (Azura UVD 2.1L) and radiometric (γ-Raytest-Isotopenmessgeraete GmbH, Germany) detectors. The gradient elution system used mobile phase A (100% acetonitrile) and mobile phase B (deionized H2O containing 0.1% trifluoroacetic acid) and a flow rate of 1.0 mL/min. Starting with 0% A and 100% B, the gradient was increased to 100% A over 25 min and finally returned to initial gradient conditions within 5 min.
Tumor-bearing mice (n=4-5 per time point) were injected with approximately 1 MBq (22 pmol) of ^177Lu-DOTA-integrin αvβ6 knottin to the tail vein via a catheter. Mice (n=4-5 per time point) were sacrificed and dissected one, two, three and eight days post injection. Tumor, blood, stomach, pancreas, small intestine, colon, liver, spleen, kidney, heart, lung, muscle and femur samples were weighed and uptake of radioactivity was measured by a gamma counter.

[1] = NMRI-Foxn1^nu/Foxn1^nu (athymic nude), colon, Colon uptake, ~1 MBq i.v.
[2] = NMRI-Foxn1^nu/Foxn1^nu (athymic nude), liver, Liver uptake, ~1 MBq i.v.
[3] = NMRI-Foxn1^nu/Foxn1^nu (athymic nude), small intestine, Small intestine uptake, ~1 MBq i.v.
[4] = NMRI-Foxn1^nu/Foxn1^nu (athymic nude), spleen, Spleen uptake, ~1 MBq i.v.
[5] = NMRI-Foxn1^nu/Foxn1^nu (athymic nude), tail, Tail activity, ~1 MBq i.v.
[6] = NMRI-Foxn1^nu/Foxn1^nu (athymic nude), tumor, Tumor uptake, ~1 MBq (22 pmol) i.v.
[7] = NMRI-Foxn1^nu/Foxn1^nu (athymic nude), tumor/blood
[8] = NMRI-Foxn1^nu/Foxn1^nu (athymic nude), tumor/kidney
[9] = NMRI-Foxn1^nu/Foxn1^nu (athymic nude), tumor/liver
[10] = NMRI-Foxn1^nu/Foxn1^nu (athymic nude), tumor/muscle
[11] = NMRI-Foxn1^nu/Foxn1^nu (athymic nude), tumor/pancreas
[12] = athymic NMRI-Foxn1^nu/Foxn1^nu, blood, Blood activity, ~1 MBq i.v.
[13] = athymic NMRI-Foxn1^nu/Foxn1^nu, femur, Femur uptake, ~1 MBq i.v.

CC[C@H](C)[C@@H]1NC(=O)[C@@H](NC(=O)CNC(=O)CN2CCN(CC(=O)O)CCN(CC(=O)O)CCN(CC(=O)O)CC2)CSSC[C@@H]2NC(=O)[C@H](C)NC(=O)CNC(=O)[C@@H]3CCCN3C(=O)[C@@H]3CSSC[C@@H](C(=O)NCC(=O)O)NC(=O)[C@H](Cc4ccc(O)cc4)NC(=O)CNC(=O)[C@H](CC(N)=O)NC(=O)CNC(=O)[C@H](CCCNC(=N)N)NC(=O)[C@H](CSSC[C@H](NC(=O)[C@H](CCCNC(=N)N)NC(=O)[C@H](Cc4ccccc4)NC(=O)[C@H](CC(C)C)NC(=O)[C@H](CC(C)C)NC(=O)[C@H]([C@@H](C)O)NC(=O)CNC(=O)[C@H](CC(C)C)NC(=O)[C@H](CC(=O)O)NC(=O)[C@H]([C@@H](C)O)NC(=O)[C@H](CCCNC(=N)N)NC(=O)CNC(=O)[C@H](CC(N)=O)NC(=O)[C@H](CC(C)C)NC1=O)C(=O)N[C@@H](CCCNC(=N)N)C(=O)N[C@@H](CCCNC(=N)N)C(=O)N[C@@H](CC(=O)O)C(=O)N[C@@H](CO)C(=O)N[C@@H](CC(=O)O)C(=O)N3)NC(=O)[C@H]([C@@H](C)CC)NC2=O [^177Lu-DOTA-integrin αvβ6 knottin, metal not drawn]
tissue uptake at 24 h [1]: 1.37 %ID/g | tissue uptake at 48 h [1]: 0.56 %ID/g | tissue uptake at 72 h [1]: 0.43 %ID/g | tissue uptake at 192 h [1]: 0.04 %ID/g | tissue uptake at 24 h [2]: 0.24 %ID/g | tissue uptake at 48 h [2]: 0.18 %ID/g | tissue uptake at 72 h [2]: 0.2 %ID/g | tissue uptake at 192 h [2]: 0.08 %ID/g | tissue uptake at 24 h [3]: 0.76 %ID/g | tissue uptake at 48 h [3]: 0.35 %ID/g | tissue uptake at 72 h [3]: 0.27 %ID/g | tissue uptake at 192 h [3]: 0.02 %ID/g | tissue uptake at 24 h [4]: 0.06 %ID/g | tissue uptake at 48 h [4]: 0.07 %ID/g | tissue uptake at 72 h [4]: 0.18 %ID/g | tissue uptake at 72 h [5]: 0.16 %ID/g | tissue uptake at 192 h [5]: 0.08 %ID/g | tissue uptake at 48 h [6]: 2.45 %ID/g | tissue uptake at 72 h [6]: 3.46 %ID/g | tissue uptake at 192 h [6]: 1.16 %ID/g | Kp at 24 h [7]: 498 | Kp at 48 h [7]: 851 | Kp at 72 h [7]: 697 | Kp at 192 h [7]: 2120 | tissue to tissue ratio at 24 h [8]: 0.17 | tissue to tissue ratio at 48 h [8]: 0.19 | tissue to tissue ratio at 72 h [8]: 0.24 | tissue to tissue ratio at 192 h [8]: 0.51 | tissue to tissue ratio at 24 h [9]: 13 | tissue to tissue ratio at 48 h [9]: 13.6 | tissue to tissue ratio at 72 h [9]: 18.4 | tissue to tissue ratio at 192 h [9]: 14.6 | tissue to tissue ratio at 24 h [10]: 13.1 | tissue to tissue ratio at 48 h [10]: 23.1 | tissue to tissue ratio at 72 h [10]: 35.8 | tissue to tissue ratio at 192 h [10]: 32.9 | tissue to tissue ratio at 24 h [11]: 13.1 | tissue to tissue ratio at 48 h [11]: 15.6 | tissue to tissue ratio at 72 h [11]: 27 | tissue to tissue ratio at 192 h [11]: 38.7 | tissue uptake at 24 h [12]: 0.01 %ID/g | tissue uptake at 72 h [12]: 0.01 %ID/g | tissue uptake at 24 h [13]: 0.3 %ID/g | tissue uptake at 48 h [13]: 0.45 %ID/g | tissue uptake at 72 h [13]: 0.13 %ID/g | tissue uptake at 192 h [13]: 0.07 %ID/g
